Assay results: the supplement of paper PMC10567573

B1: FBF1 (parent)
chain: QLQCSPAELQAELLHSQARLAELE
B2: ZNF75A (parent)
chain: RTHTGEQPYTCSICRRNFSRRSSL

Variants of: B1
Assay: protein stability index of a GFP-peptide fusion (GPS, HEK-293T) (PSI 1-6); higher = more stable
Conditions: c terminus: a fixed tail appended
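Also: lentivirally expressed fusions sorted by FACS into six bins by GFP to DsRed ratio, PSI derived from sequencing read proportions per bin multiplied by bin number.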

Protein stability index of substitutions, site by site:
L9: W 4.52, Y 4.64, P 4.79, T 4.45, Q 4.62, R 4.51, S 5.05, V 4.4
A18: F 2.82, I 3.13, Q 3.66, W 2.18, M 2.77, R 3.24, Y 2.81, N 3.12, K 2.77, C 3.27, S 3.69, L 2.68, D 4.03, P 3.96, T 3.42, H 2.85, V 2.98, E 3.95, G 4.23
L14: I 3.83, T 3.61, R 3.33, A 2.89, E 4.39, W 2.93, K 3.72, N 2.85, H 3.94, G 4.5, C 3.3, V 4.08, S 3.67, D 4.88, Q 3.59, M 2.93, F 3.27, P 4.8, Y 3.21
L13: E 4.25, V 4.2, T 4.7, D 5.39, I 4.62, P 4.73, R 4.31, K 4.25, G 4.59, Y 4.52, C 4.32, S 4.74, H 4.85, Q 5.08, A 4.28, F 4.25, W 4.13, M 3.34, N 4.96
R19: G 4.16, A 2.6, Q 2.94, L 1.79, H 3.34, K 3.05, Y 1.89, M 1.97, D 4.27, C 2.84, W 2.12, N 4.2, I 1.99, F 2.12, E 2.89, T 3.88, S 4.45, V 2.55, P 4.61
Q17: H 4.31, M 3.65, G 3.74, Y 3.52, N 4.25, T 3.97, D 4.55, S 3.98, L 2.92, V 3.44, E 3.77, I 3.07, R 3.68, A 3.4, K 4.11, C 3.62, W 3.16, P 4.52, F 3.26
S16: Y 3.49, F 3.78, A 2.88, K 3.9, C 4.23, V 4.15, P 4.17, N 4.33, L 3.91, T 2.95, H 4.46, R 4.02, Q 4.06, W 3.35, I 2.81, E 4.81, D 5.03, G 4.86, M 3.33
H15: Q 3.71, Y 1.92, G 4.04, K 3.49, F 1.84, R 2.73, A 3.78, I 1.87, W 2.65, N 2.81, P 4.91, M 2.22, E 3.81, V 2.85, T 3.56, L 2.27, C 2.88, S 2.52, D 3.28
A21: Y 2.31, R 3.25, T 2.86, G 3.79, F 2.72, C 3.01, V 3.14, P 3.75, D 2.68, M 2.31, L 2.63, I 2.55, H 2.98, K 3.29, N 3.41, S 3.31, W 2.8, Q 2.67, E 2.61
L20: R 4.62, F 3.37, W 4.22, H 4.05, M 3.87, T 4.66, S 4.7, I 3.59, N 4.96, E 4.63, P 4.76, C 3.35, A 4.91, Q 5.33, V 3.34, K 4.66, D 4.91, G 4.74, Y 4.12
E12: G 3.65, I 2.57, T 3.62, A 2.47, H 2.41, N 3.18, L 2.75, S 2.94, K 3.38, Q 2.67, V 3.17, F 3.56, W 1.64, P 4.04, Y 3.22, M 3.49, D 3.33, C 3.05, R 3.59
E24: M 2.83, A 3.75, I 3.06, V 2.81, F 2.32, T 3.54, D 2.45, R 3.16, Q 3.29, W 2.47, Y 2.36, K 3.44, G 3.23, C 3.22, H 3.56, L 2.41, S 2.99, P 3.18, N 3.29
L23: R 4.14, V 3.03, N 4.79, S 4.84, W 3.71, Y 3.26, D 5.07, F 2.75, P 4.03, M 3.38, C 3.66, K 4.65, I 2.59, G 4.71, T 4.18, A 4.59, Q 4.98, E 4.48, H 4
A11: M 2.01, E 4.26, Q 3.28, G 4.24, P 4.43, V 2.87, H 3.38, Y 2.3, C 3.89, T 3.37, N 3.1, K 3.04, R 2.62, F 2.41, I 2.24, L 1.71, S 2.77, W 2.59, D 2.94
Q10: R 2.56, C 2.45, P 4.69, M 2.29, S 3.7, D 5.13, G 3.85, Y 1.89, K 3.74, A 2.93, T 3.91, W 2.21, N 3.54, I 2.04, V 2.56, E 3.95, L 2.17, H 3.1, F 1.79
E22: K 2.99, N 3.21, P 3.39, W 2.76, Q 2.53, T 2.34, A 2.83, D 2.72, M 3.12, V 2.54, H 2.39, C 2.67, L 1.98, G 2.91, I 2.16, F 2.25, Y 2.33, S 2.48, R 2.92

Variants of: B2
Assay: as above
Conditions: c terminus: a fixed tail appended

Protein stability index, by site and new letter:
H3: C 2.85, E 3.1, D 3.18, A 2.69
R1: H 3.93, Y 2.46, D 3.34, I 3.06, N 3.26, E 3.62, A 3.23, W 2.67, T 3.14, M 2.33, K 2.99, Q 2.4, S 3.07, C 5.09, F 2.12, P 3.15, V 2.26, L 2.28, G 3.82
T2: F 3.15, A 3.58, E 2.78, Q 2.38, H 3.33, M 2.68, S 2.53, K 2.47, L 2.82, R 3.46, Y 2.81, C 3.17, D 3.02, I 2.63, V 2.88, W 2.17, G 2.77, N 2.52
